# Results taken from patent publication US20230080534A1, “SEMG2 ANTIBODY AND USE THEREOF” (SHANGHAI BIOTROY BIOTECHNIQUE CO., LTD., priority 2020, published 2023).
# Entries after “also recorded” stand apart in the source; their conditions may differ.
# B1: MM05: mouse monoclonal antibody against SEMG2(497-509), mIgG1 kappa, VH SEQ ID NO:36, VL SEQ ID NO:43 (antibody, V domains shown)
# VH: QVQLQQPGAELVRPGASVKLSCEASGYTFTSYWMNWVKQRPGQGLEWIGMIDPSDSETHYNQMFKDKATLTVDKSSSTAYMQLSSLTSEDSAVYYCARYLGGKEGSFDYWGQGTTLTVSS
# VL: DIVMSQSPSSLAVSAGEKVTMSCKSSQSLLNSRTRKNYLAWYQQKPGQSPKLLIYWASTRESGVPDRFTGSGSGTDFTLTISSVQAEDLAVYYCKQSYSLPWTFGGGTKLEIKRA
# modifications: UNSURE (1)..(120) VH; UNSURE (1)..(115) VL
# B2: MM02: mouse monoclonal antibody against SEMG2(497-509), mIgG2b kappa, VH SEQ ID NO:35, VL SEQ ID NO:42 (antibody, V domains shown)
# VH: QIQLVQSGPEVKKPGETVRISCKASGYTLTTAGIQWVQKMPGKGLKWIGWINTHSGVPEYAEDFKGRFAFFLETSASTAYLQISNLKNEDTATYFCARLGLLGYWGQGTTLTVSS
# VL: DILLTQSPAILSVSPGERVSFSCRASQSIGTTIHWYQQRTNGSPRLLIKYASESISGIPSRFSGSGSGTDFTLSINSVESEDIADYYCQQSNSWPWTFGGGTKLEIKRA
# modifications: UNSURE (1)..(115) VH; UNSURE (1)..(109) VL
# What was measured:
# SEMG2(497-509) fragment = biological target: T1, SEMG2(497-509) fragment (Homo sapiens, UniProt Q02383); experiment: ELISA binding of antibodies to SEMG2(497-509) epitope
# T1 construct: SEMG2(497-509) fragment and SEMG2(563-574) fragment were immobilized on the ELISA plate; made in house; host or cells: chemical synthesis
# Protocol: Specifically, SEMG2 full-length protein (1-582), SEMG2(354-403) fragment, SEMG2(442-453) fragment, SEMG2(497-509) fragment and SEMG2(563-574) fragment were immobilized on the ELISA plate, and the same concentration of antibodies (MM02, MM05, MM07, MM08, MM13, MM14, HPA042767 and HPA042835) were added. Anti-mouse or anti-rabbit secondary antibodies were then used to detect the corresponding bound antibodies. MM02, MM05, MM07, MM08, MM13, and MM14 all bound to SEMG2(497509) epitope, HPA042767 bound to SEMG2 (354-403) epitope, and HPA042835 bound to […], while none of the antibodies bound to SEMG2 (442-453) control fragment.
# Specifically, the preparation of polypeptide antigens and the screening of human natural antibody library were firstly performed. The SEMG2(497-509) polypeptide was synthesized and coupled to BSA and KLH, respectively, and screened in a fully human phage display antibody library. ELISA was used to select clones that bind to antigenic epitopes for preliminary screening. Different unique sequences were obtained after sequencing single colonies, sorted according to affinity sorting, and full-length antibodies were constructed from antigen-binding fragments (Fab) with relatively high affinity. The binding ability and blocking function tests were performed after purification, that is, the effect of the antibody on binding between SEMG2 and CD27 was determined by the ELISA experiment.
# [1] = system: A375 human melanoma cells; experiment: Tumor cell killing by activated PBMC, caspase-3/7 apoptosis; assay type: cell-based; details: A375, SEMG2-positive, co-culture with activated PBMC 10:1
# Protocol: (§1) To test the above hypothesis, the effects of different epitope-specific antibodies on tumor cell killing by activated PBMC were compared. Specifically, A375 human melanoma and LOVO human colorectal cancer cells highly expressing SEMG2 were seeded in 96-well plate. Human peripheral blood mononuclear cells (PBMC; #70025, Stem Cell) were activated with 100 ng/mL of CD3 antibody, 100 ng/mL, of CD28 antibody, and 1.0 ng/mL of IL2 (#317303; #302913; #589102, BioLegend), respectively, and co-cultured with the above tumor cells at a ratio of 10:1 in presence of fluorescent caspase-3/7 substrate (#4440, Essen Bioscience). After 1.0 hours, cells were observed under fluorescence microscope.
# (§2) To verify the above hypothesis, tumor cells with high SEMG2 expression (A375, LOVO) and SEMG2-negative tumor cells (DLD1, NCM460 and NCI-H1975) were selected. Different antibodies (irrelevant mouse IgG antibodies, MM02 or MM05 antibodies) were added during the PBMC killing experiments for the tumor cells.
# (§3) To verify the effect of the human antibodies on the function of activated PBMC on tumor cell killing, A375 and LOVO cells were co-cultured with activated PBMC, and H88-93, H88-96, or H88-67 antibody was added at the same time, and the apoptosis ratio of tumor cells were detected.
# [2] = system: LOVO human colorectal cancer cells; experiment: as above; assay type: cell-based; details: SEMG2-positive, co-culture with activated PBMC 10:1
# Protocol: as §1, §2, §3
Molecule,binding to SEMG2(497-509) epitope (SEMG2(497-509) fragment),apoptosis tumor cell ratio / killing by activated PBMC [1],apoptosis tumor cell ratio / killing by activated PBMC [2]
B1,able to hind to SEMG2(497-509); also recorded: bound,significantly increased the killing,significantly increased the killing
B2,able to hind to SEMG2(497-509); also recorded: bound,significantly increased the killing,significantly increased the killing
